Laboratory results published in the supplement of paper PMC9170038.

Test system: K4 kissing-loop RNA reporter
Assay: apparent KD of K4 kissing-loop reporter; higher = weaker reporter binding
Settings: Eterna round: R107
Description: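 RNA-MaP round R107: designed RNA switches with theophylline, tryptophan, arginine or FMN aptamers are transcribed on-chip within common flanks. They are titrated with a labelled K4 kissing-loop RNA reporter in RNA-MaP buffer (100 mM Tris pH 7.5, 80 mM KCl, 4 mM MgCl2), without ligand or with the indicated ligand. Median apparent KD per design.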

[1] = input ligand: theophylline 20 uM
[2] = input ligand: tryptophan 2.4 mM
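Note: bound reporter read as fluorescence of individual clusters on recovered sequencing chips by microscopy, with normalized cluster intensities fitted with a binding model.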

Sequence | apparent KD of K4 kissing-loop reporter (input ligand: FMN 200 uM) | apparent KD of K4 kissing-loop reporter (input ligand: arginine 13.2 mM) | apparent KD of K4 kissing-loop reporter (input ligand: none) | apparent KD of K4 kissing-loop reporter [1] | apparent KD of K4 kissing-loop reporter [2]
CGCAGUGAUGUUGCUAUUAUUCUUGGUUAACGAGGACCGGUACGGCCGCCACUCGGUUUCUAUCUAAUCCAGUGUUUUUUUGAGU [#24 K4 Tryptophan A Exclusion] | 425 nM | 506 nM | 556 nM | 573 nM | 246 nM
UGAUAGGACAGAAGGAGCGGUAGUGAUGUUACCAAAAGUAUAAGGUGUCAAAAGACACCCUACCAGGUAGGUCGCUGUCCUAUCU | 292 nM | 295 nM | 367 nM | 506 nM | 286 nM
AAGAGAUCGAGAAGGAGCGAGAAAGCUAGUACAUAUGUACUAGCAAAGCAGUGAUGUUGCACUCAGGUAGGUCGCUCGAUCUCAA [AK1 SS Arginine B] | 395 nM | 299 nM | 432 nM | 335 nM | 314 nM
UGUCAUUGGUCGGCCGCCACUUCGGUCAAAGACCAUAAAGAGUGAUGUUCUUAAGACGAAAGUCGAAGGACCGGGACCGAUGACU [TrypBS 11 #SwitchBubble #K4Middle] | 1110 nM | 744 nM | 1200 nM | 782 nM | 273 nM
GCUAUGGUAGGAAGGAGCGCUACUUUGUUUUUACGAGUGAUGUUCGGAAGCAGAGUGUUAAAGCAGGUAGGUCGCCUACUAUAGC [Arginine B K4 20] | 171 nM | 154 nM | 171 nM | 181 nM | 197 nM
UAAUUUAUGUCUUUAAUAUAAUAAUCAGAUACCAGUGAUUAAUGACACCCUUGGCAGCUGUAUAGAGUGAUGUUCUUAUGCUUAA [JR_ExcTheophyA_Sub010] | 245 nM | 316 nM | 288 nM | 364 nM | 179 nM
GCAGUCAAUCGACCACGAAAGUGGAUGGAUACCAGCCCGAAACCGGGCCCUUGGCAGCCAGUGAUGUUGGAAGACUGCUUUAAAA [#SwitchBubble 14 #K4Late] | 371 nM | 372 nM | 548 nM | 216 nM | 660 nM
GCCUGGGCACGAAGGAGCGCCGUGACAGGUUACUGCCGUGGGCAGUGAUGUUGCUCAAUCUGGCAGGUAGGUCGCGUGCCCAGGC | 137 nM | 86 nM | 184 nM | 107 nM | 121 nM
UUUAACGAGUGAUGUUCGAAGAGUAAUGGUGAGGAUAUCGAUUUUUCGAGAAGGCGCCUCGAAGUGAUACGAAAGUAUCGCUUCG [FMN A 6] | 239 nM | 247 nM | 286 nM | 253 nM | 255 nM
CGGCUCACGCAAGGAUAUCGCAGUGAGUACUCUGGAAGAAUAAAGCUAGUGAUGUUAGGUUAGAAGCGAGAAGGUGCGGCCGUAU [theeternabot_sameState_KL_FMN_B_30] | 126 nM | 96.5 nM | 128 nM | 197 nM | 137 nM
UUCGAUCAGUGAUGUUGAUCAAUAGUCGAAGGAGCGCUAUAGAUAGCAGGUAGGUCGCGGCUACAGGGUGUUAAGACACCCAGAA [#13 K4 Arginine A Same State] | 534 nM | 450 nM | 453 nM | 477 nM | 488 nM
AAGGGCGAGGUAACGUGGAUAUCUCGUCGCAAGGAUAUCUGGAAACAGAGAAGGUGCUACAUUACCGGCAGUGAUGUUGCUGACC | 887 nM | 312 nM | 573 nM | 278 nM | 261 nM
ACGUAGUUCUAGGAUACCAGCCAAGGACGCCAGGACAAAAGUCCUGGCGCCAGUGAUGUUGGCCCUUGGCAGCCUAGAACUACGA [Omei KL Theo B Exc B v5] | 197 nM | 168 nM | 182 nM | 205 nM | 176 nM
UUGGCCGGACGGGAUACCAGUCAAAUCGUGUGCUUGGGAUGUCUAAGAGCCAGUGAUGUUGGCCCUUGGCAGCCCUCCCAGCUUG [Esleaqu] | 111 nM | 105 nM | 110 nM | 102 nM | 93.5 nM
UAUUUAAUUUUUAAUUUUUAAAUUGCUGAUACCAGAGCCAAUUGGCUCCCUUGGCAGCGGAUCGAGUGAUGUUCGUAUAAUUUAA [AK1 SS Theophylline A] | 30.5 nM | 66.4 nM | 35 nM | 62.2 nM | 33.6 nM
UAAGAGGACCACUGCAAGAGUCCUCGAAUACGAGGACCGGUACGGCCGCCACUCGAUAAUUUGCAGUGAUGUUGCAAGUAAGAAU [BrourdMod 5 - Jieux - Same State Tryptophan A] | 115 nM | 167 nM | 130 nM | 177 nM | 54.4 nM
UGGAUAUAGUGAUGUUAUAUAGAGAUGGAUACCAGUUUAGAGAAGAGCCCUUGGCAGCCGAAAGAAGUAUCAUUAGAGAAGAAUG [ExTheophyl.Al] | 257 nM | 164 nM | 214 nM | 212 nM | 179 nM
AGAGUUAAUUAGUCUUUUUUUACAUUAAGUCAGGAUAUCGUAUAUUCGAGAAGGGACACAUGCUAGUGAUGUUAGCUAUUUCUCA [JR_Nu_ExcFMNA_Sub019] | 39.7 nM | 79.6 nM | 47.5 nM | 71.7 nM | 44.4 nM
AAAUUCUUUUUUUUAUUUAACUUUUCAGAAGGAGCGUGGUAGUUCACAGGUAGGUCGCUGAAUUUUGGACUAGUGAUGUUAGUUA [JR_SSArginiA_Sub006] | 148 nM | 214 nM | 234 nM | 216 nM | 158 nM
AUUUUUUUGUCAGGAUAUUAGUAUGCGUUUGGUUUGUUAGUGAUGUUGAUAUUUUGUUUAUGUAUUUAAGAAGGGAUUUAGCGGU [yyitemullin] | 497 nM | 348 nM | 511 nM | 497 nM | 359 nM
AAAAUAAGCCAGUGAUGUUGGUACCCAGAUACCAGCGACGAAAGUCGCCCUUGGCAGCUGUGGACGUACAAAAUAAGUACGUCCU | 434 nM | 209 nM | 315 nM | 617 nM | 303 nM
UAACGCCACUAAGAUACCAGACAUACAGAUCGGAUCUCCUAAAGAGAGUGAUGUUCUCUAGUCCCUUGGCAGCUUCUGGACUCCC [theeternabot_sameState_KL_Theo_B_9] | 296 nM | 356 nM | 406 nM | 396 nM | 291 nM

Sequence | apparent KD of K4 kissing-loop reporter (input ligand: FMN 200 uM) | apparent KD of K4 kissing-loop reporter (input ligand: arginine 13.2 mM) | apparent KD of K4 kissing-loop reporter (input ligand: none) | apparent KD of K4 kissing-loop reporter [1] | apparent KD of K4 kissing-loop reporter [2]
UGUGUUUACCUGACUCAGUGAUGUUGAGAAGGAGCGUGCGAAGGCACAGGUAGGUCGCUCAACCUAAAUUCAGGUGAGCACUAAA | 249 nM | 168 nM | 344 nM | 281 nM | 250 nM
UCCUUAUCGCGGUCAUAAAGCCUAUAAAACAAGGAUAUCUCAUCAGAGAGAAGGUGUGAGUGAUGUUCAAAGGCCACCACGGGUU [theeternabot_sameState_KL_FMN_A_47] | 654 nM | 724 nM | 840 nM | 453 nM | 818 nM
CUUCUUCUUCCAAUCUCGGCCAACACGGGACGAGGACCGGUACGGCCGCCACUCGUGCAGUGAUGUUGCACGAUGGUGACGGAGA [Engebiisso] | 98.5 nM | 81.1 nM | 84.6 nM | 74.7 nM | 113 nM
ACUCUUGCGUAUGAUACCAGCUUGUACCGCCACAUAUAUUCUAAGAGUUGAGUGAUGUUUAGCCCUUGGCAGCAUACUUGUGCGU [theeternabot_exclusion_KL_Theo_B_42] | 706 nM | 546 nM | 778 nM | 606 nM | 702 nM
GUUAUAUAAAUAAGAAAUAAAAUAAGGGAAGGAGCGCCGAGAAAGGCAGGUAGGUCGCCCAGUGAUGUUGGGAUUAAUUAAUUAG | 45 nM | 33.7 nM | 39.3 nM | 43.9 nM | 37.1 nM
AGAUGUCCCUGGGAUACCAGUCGGAGUCUCAGAGCUCGGAGUGAUGUUCUGGGAUGUUUCGGCCCUUGGCAGCUCUGGGACUCCC [#2 Exclusion - Theophylline B Attempt #25 (HarryS)] | 603 nM | 722 nM | 847 nM | 708 nM | 909 nM
GCCGUACGCAUGGAUACCAGAUCUAGACGCUUAGUGAUGUUAAGUAAUCUGGUUAGACCGAUCCCUUGGCAGCCAUGCGUACGGC | 270 nM | 199 nM | 229 nM | 203 nM | 200 nM
AGGUGAGACUGAAGGAGCGAUCGCGCCAGUGAUGUUGGUGAGCAUGACAAAGUCAUGCACGAUCAGGUAGGUCGCAGUCUUACUC [Omei KL Arginine B SS B v2] | 199 nM | 156 nM | 206 nM | 188 nM | 185 nM
UGUACCGAGUUAGGAUAUGUCGUCGAAAGACGAAAUGGAGUGAUGUUCCUUAAACUGCGAAAGCAGACAGAAGGAACUUGGUACU [FmnBS 29 U11+A75] | 190 nM | 627 nM | 544 nM | 546 nM | 476 nM
GUGCAGUGAUGUUGCACGAGGAAAGACGAUACCAGCCGUAAAUAAGGCCCUUGGCAGCGUAGGCUAGCAUAAGGUAUGCUAGUCC [Atesermace] | 117 nM | 109 nM | 108 nM | 95.5 nM | 100 nM
GGAUCGCAUGGCGAAAAGCCAUGCGAUCCACGAGGACCGGUACGGCCGCCACUCGCCGGAGUGAUGUUCCGCUACAGAUCUUAAA | 187 nM | 121 nM | 256 nM | 144 nM | 301 nM
GGAUUCACCAGUGAUGUUGGAGAAAACUCGAAGGAUAUGACGAAAGUCAGAAGGUCGUAGACUGGACAAAGUCCGGUCGGAUCCA [KL-SSFMN-A22] | 419 nM | 250 nM | 299 nM | 359 nM | 279 nM
ACGAUUUACAGAAGGAGCGUGUAUUUAACUACAAUUAUCUUAGCGAGUGAUGUUCGUUUUACACAGGUAGGUCGCUGUAUAUCGA [JR_ExcArginiB_Sub011] | 218 nM | 303 nM | 263 nM | 374 nM | 220 nM
CGGAUGUAGUGAUGUUAUAUUAGAUGUAGACGAGGACCGGUACGGCCGCCACUCGUGAUGGCUGCUAGCACGUUUCGAUGUUUGC [ExTryptoA.Cq] | 669 nM | 483 nM | 624 nM | 611 nM | 434 nM
AUGUAUGAAUUAGGAUAUCGUUAGCCUUUCAUAUAUAUGAUAAAUGGAUAUGUCGUAGUGAUGUUACGAGAAGGAGUGUGGAGUA [KL-XFMN-B8] | 49.3 nM | 52.9 nM | 38.2 nM | 64.6 nM | 30.5 nM
UUAGGAGUGGAAGGAUAUCCUGGUGUGGGUGAUGUUAGUGAUGUUGAAAGUGCAGUGAUGUUGCGCGGAGAAGGUCCGGUGUUGA [BDazzled - #7 - Exc. FMN B] | 180 nM | 153 nM | 173 nM | 256 nM | 157 nM
UGAUACCAGACGGCCGCCACUGGUGCAGUCAAAGACUGCUAAAACCAAAUCGUGGAGUGAUGUUCCAGGACCGGGUCUGGUAUCU [TrypBX 20 #SwitchBubble #Palindromic #StaticStem] | 451 nM | 423 nM | 452 nM | 462 nM | 674 nM
GGGCAUCUGGCUGAUACCAGUGAUAAAGGGUAAGAGACAGGGAGUGAUGUUCCCUUUAGCCACCCUUGGCAGCAGUUUAAGUUUG [Exclusion Theophylline B GF 17] | 83.5 nM | 83.3 nM | 94.7 nM | 85.4 nM | 76.4 nM
CUGUCCUACGAAGGAUAUGCUGAUGGGAUCAAACAGUGAUGUUGUUAUGAACUUAGGCUUAUGUGCGCAGAAGGUCGUGGCGACG [theeternabot_sameState_KL_FMN_B_42] | 236 nM | 396 nM | 264 nM | 801 nM | 546 nM
UGACUGGACUGAAGGAGCGCGCGAGACAAAGUCUCGAACUCGUAGUGAUGUUAGGAAAUAACGCAGGUAGGUCGCAGUCUAGUCU | 651 nM | 417 nM | 611 nM | 796 nM | 512 nM
GGUUCCUCAGUGAUGUUGAGGUGACCUCGGCAGGAUAUAGGCAUUACUAGAAGGGCCAAAAGAACCCUGUCCAGCGACACAGGGA [Zalatiat] | 159 nM | 238 nM | 305 nM | 250 nM | 232 nM
